According to paper PMC4245933:
Residue numbers refer to the chain shown, from its start.

How the values were obtained:
His-KDM4D-FL [1] = target: T1, His-KDM4D-FL (human, UniProt Q6B0I6 1-523); test: EMSA
T1 sequence: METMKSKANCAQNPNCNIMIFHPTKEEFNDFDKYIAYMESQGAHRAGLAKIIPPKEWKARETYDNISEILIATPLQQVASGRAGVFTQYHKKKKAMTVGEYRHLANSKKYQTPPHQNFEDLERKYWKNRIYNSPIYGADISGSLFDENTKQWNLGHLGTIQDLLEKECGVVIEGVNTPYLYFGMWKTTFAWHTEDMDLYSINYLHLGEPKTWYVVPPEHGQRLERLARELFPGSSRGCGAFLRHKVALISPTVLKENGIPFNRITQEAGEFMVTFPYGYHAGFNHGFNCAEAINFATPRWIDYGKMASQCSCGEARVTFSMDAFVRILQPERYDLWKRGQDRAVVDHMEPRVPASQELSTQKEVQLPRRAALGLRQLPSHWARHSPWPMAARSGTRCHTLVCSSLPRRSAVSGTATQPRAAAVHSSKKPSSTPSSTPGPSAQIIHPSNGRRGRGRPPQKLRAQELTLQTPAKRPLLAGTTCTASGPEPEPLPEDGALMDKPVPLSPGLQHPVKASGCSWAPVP

His-KDM4D-FL [2] = target: T1, His-KDM4D-FL; test: fluorescence anisotropy
His-KDM4D1-350 [3] = target: T2, His-KDM4D1-350 (human, UniProt Q6B0I6 1-350); test: fluorescence anisotropy
T2 sequence: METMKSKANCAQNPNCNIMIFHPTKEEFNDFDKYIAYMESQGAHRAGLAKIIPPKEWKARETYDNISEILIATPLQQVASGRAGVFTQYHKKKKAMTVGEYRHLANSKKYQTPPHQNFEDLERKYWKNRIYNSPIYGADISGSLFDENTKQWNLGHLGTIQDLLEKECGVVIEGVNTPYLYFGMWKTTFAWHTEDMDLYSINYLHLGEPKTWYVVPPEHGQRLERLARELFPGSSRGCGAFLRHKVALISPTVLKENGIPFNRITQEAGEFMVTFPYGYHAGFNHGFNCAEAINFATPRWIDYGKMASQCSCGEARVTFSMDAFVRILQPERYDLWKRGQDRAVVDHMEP

His-KDM4D1-350-1H4R-HRK = target: T3, His-KDM4D1-350-1H4R-HRK (human, UniProt Q6B0I6 1-350, H115A;R123A;K127A;H219A;R222A;R225A;R228A;R236A); test: fluorescence anisotropy
T3 sequence: T2 sequence with H115A, R123A, K127A, H219A, R222A, R225A, R228A, R236A

His-KDM4D-FL-1H4R-HRK = target: T4, His-KDM4D-FL-1H4R-HRK (human, UniProt Q6B0I6 1-523, H115A;R123A;K127A;H219A;R222A;R225A;R228A;R236A); test: EMSA
T4 sequence: T1 sequence with H115A, R123A, K127A, H219A, R222A, R225A, R228A, R236A

GST-KDM4D348-523 = target: T5, GST-KDM4D348-523 (human, UniProt Q6B0I6 348-523); test: EMSA
T5 sequence: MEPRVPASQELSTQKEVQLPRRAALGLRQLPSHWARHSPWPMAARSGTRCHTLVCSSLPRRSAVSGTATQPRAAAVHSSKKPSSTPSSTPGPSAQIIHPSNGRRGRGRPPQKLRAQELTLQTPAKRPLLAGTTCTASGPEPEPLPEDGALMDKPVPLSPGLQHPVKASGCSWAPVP

His-KDM4D1-350 [4] = target: T2, His-KDM4D1-350; test: EMSA
His-KDM4D-N202M = target: T6, His-KDM4D-N202M (human, UniProt Q6B0I6 1-523, N202M); test: EMSA
T6 sequence: T1 sequence with N202M

B1: 37nt RNA (ssRNA)
RNA: GGGCGAAUUGGGCCCGACGUCGCAUGCUCCCGGCCGC
- Kd (His-KDM4D-FL [1]): < 50 nM

B2: 22nt RNA (RNAF-22) (ssRNA)
RNA: UUAACACAAAAUACGCACCCCA
- Kd (His-KDM4D-FL [2]): ~126 nM
- Kd (His-KDM4D1-350 [3]): ~1220 nM
- binding result (His-KDM4D1-350-1H4R-HRK): no binding

B3: 100nt RNA (ssRNA)
RNA: GGGCGAAUUGGGCCCGACGUCGCAUGCUCCCGGCCGCCAUGGCGGCCGCGGGAAUUCGAUUAGUUCCCCUAAUAAUCGGUGCCCCCGAUAUGGCGUUUA
- Kd (His-KDM4D-FL-1H4R-HRK): > 100 nM
- Kd (His-KDM4D-FL [1]): ~20 nM
- Kd (GST-KDM4D348-523): > 100 nM
- Kd (His-KDM4D1-350 [4]): ~80 nM
- Kd (His-KDM4D-N202M): ~15 nM
